The supplement of paper PMC12636428

Test system: Saccharomyces cerevisiae
Assay: transcriptional activation domain activity (GFP:mCherry ratio, weighted mean of sorted bins, harmonized to initial dataset scale) (arbitrary fluorescence ratio units); higher = stronger transcriptional activation
Conditions: beta-estradiol 1 µM; induction time 4 h
In short: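 Each value is an activation activity: the read-weighted mean of bin median fluorescence, averaged across barcodes, then mapped linearly to the initial dataset scale. The tiles, fused to an estradiol-inducible synthetic transcription factor, sat at the yeast URA3 locus in GFP-reporter diploids. Cells spent 4 hours at 30 °C in SC with 1 uM beta-estradiol before sorting into 8 GFP:mCherry bins, and tiles below 50 reads were removed.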

Sequence | transcriptional activation domain activity
ILLIVRFIWRSPYLISTGCGSLINDFSYVNIFLYSKIFCERFFIFLSLVIFIK | 66800
ILLMELILHTVYCVAISKWGHWEAFSVYEISLIGYMRLSFIWLKLLVIWRFAR | 88100
ILLMLATGQWRLLIDALVSMSDIEVQFFLRQLALCKLVNWKASIVNGYPSPVE | 52400
ILLPIFGLANRDKNVELMRWALKQCNRTLRRKRAHIWYFSRWLMRPMLPQQRS | 66600
ILLRRAWTVNAEMLLHKFDPRLFPLYFRILYPTWDTCSIPAPSRLVGAAKQWL | 46700
ILLSLFANHFPWDFRDALCLEFWVVAFRNLEMLEYFDGDLLLSEHGGTCTVSK | 34800
ILLTCLLQICCRFVQEKQTRCLQILLHYIGSQASMHAGARPLELLCRSLLEAM | 40900
ILLVALPLFSFGFESFLPFGKDSGILYYFWLYSTRVFCPCMGFLWAIFALLPF | 59700
ILLYHPNFLLIAISILYIIWCFMVLIMFCVVLPTAFLLLRAALFYPPHGREFI | 25900
ILMLFLGCLVICDLAFNIIVTILAFTTGFTHLLLSLVPTIPPPNCFLVHWQNH | 54600
ILNITPYAAGQFGYYYGTCWFNDPRPDVQFRWLLGSQSVWILLMSTGEVVFFF | < 6570
ILNVTVRLNFLTFVLQYLMDTDYLSYYFTPLVSFWFLAIWIIMYAGHTWNKIP | 67300
ILPRWIQVAITFVALLAVSCIVMVVGLIVKYWTLSVSFGHFLSRFAVLRYIVL | 58500
ILQCIQYFANFRRDSAWMKLIVWLLFLSFPGLFGLLPHFFVYRFLDTLHVLLI | 68900
ILQHILLWSLMVMTGCCPGSFFITSYYPNEWLKFLDGYMIQPYVTTFMIRGFL | 56900
ILQNDLKFDQILESSYNNSNHTVSKFKVSHYVEESGLLDILMQRYGLTAEDFE | 57600
ILRCYLQYIFALTLVFFWLLYTLTCSISQFSRHLRSWTCWIFYSLYRRILFLG | 56200
ILRKLGFIVHVQLPYNLMINYLRILGLEDDEVISRKAWNYLNDGLRTNIYVTY | 55800
ILRLSVVLKPHHYWWFLLHLLLILLLVAFTCSSFLILKHGPVWILALFLLLHI | 45400
ILRLWQIFWVAAKTDHMSYPRFEAPGCGDFCRDWKVLVAIILIRTKLTMGTRC | 52200
ILRVERTGHSGTLDPKVTGCLIVCIDRATRLVKSQQGAGKEYVAVIRLHGKLP | 33800
ILSPTLFLLFSSSPLPLLFYPHFPFLVLTSYFLLLLYSSVSLFIAFLHSLFLI | 41300
ILSRLSLCIGIIIAFVFCTIPLLTYHRDSPVLRCSLYNIIDNFFLPLYLFIVW | 53400
ILTILYKSNAVFFLEWMVFVAYQIFNLFAWVFNCWGKILPKVGSFFLYVSLVS | 63000
ILVGGFGLELGMNGVYPWYIFLFLACLASDFEFTMLFELTVGFFFPPLLFMCL | 51800

Sequence | transcriptional activation domain activity
ILVHCIRLWTGFLVACFACLILLICLGACNLEMGIVVWSFCLISAGLHSVAVG | 16500
ILVLIVSNLRLMIENFRKYGVLICIRCHDYRRQDVVYGSILYFLVPCHLFVAY | 51300
ILVMWTVISCPVFSFPDRGHGSMLFFLFKLCLVMLLTYLVTMLWFLCVFSIVV | 52100
ILVYLSSVKLRNYRGNTYSFIHLTPWVPLDLLKYACDFLGLLSGFNLLPLYFQ | 56300
IMCQWVKNLKERLLKMPPALRICLADHVLKFVIPKLHILGHLKLCQELFSLLY | 47100
IMGLVFRRARRRTVSLVTKYLITETEVVITYIPAVAVAIFPQLNWIYWMIFYP | 65800
IMGNLVVLLWHTKVDNIESYLADLSRCIEDFLNVTAQCAPSILILKPKFHFLL | 56300
IMGRYCAKAVWLDTRQHLLNKLSQIGFNWDVLKSLVKSWWHYYSLAVMLWLYQ | 69200
IMLVLNWLAVHGLFLVKKKSEKSVYHALHKMPTPPFSDSLRQQCRDRLLACLA | 36700
IMMFPMFIALSILYAMVYLGVLFSFFSVLFFFSVVYFLEPGGLCILDVFFYYY | 68000
IMTKSEQQIVKCVKLMLSSSEKRYRLFNDSFSVIIFRIVDMNYGLRLLNLIID | 56100
IMTLFYSAQRHLNKLILATKIAAGVWPPPDAMAQLRFQIGQLLIFMQTFVSQC | 67400
IMYIICLTIAPSFLCGVLYVSLSRFIAALGHQYSLVPPWLISWVFIFGDFLSL | 62600
IMYSVIVSLLLFLFLLVLLRRYLVSLYYFTSLFLSPRLCARIAIVFRICLLYI | 50300
IMYTSHHDPKHCFEETRDGTLKVHVIGDWLPRGIFGKMYILFAILRQLVLVLW | 74900
INCQVVYQLQGITGHMALNFASINFAIRTIYIWMHNVYVTSTLSLLILCQWVI | 54700
INGLFMLLLVYYLTLYHLARCLGYSVLSYLAHFIRFDGFCPLLHTCAGLLFSS | 42300
INILIFICLPYRNFQFFLYLVPMSCSLTPCHWQVIASKLEILLLSTYWITFVA | 61200
INKGTNRFSETVLPPQMAAEQSWSDSNMELEICLDYLHNELEVIKKRQEDFEC | 60200
INPFFGFLPFFFFFLPHLLLHYLALFFYYYFWFVFFSVPYSCPLVFYLLVFFL | 55200
INSTIHNLCELAILPDLCGICCFSMRFFVYLDLIGTLILPSTVVYLVWLIIQV | 82700
INSTIHNLLEVVLLPDLCGFCCFSMRFVVLLDLIGTLTLPVSAVYLVYLIYVI | 59000
INSTVHNLCELVLLPELFGFCCFSMRFFVFIDLLGTLILPATVVYLLYLIIVV | 26100
INSTVHNLCELVLLPELFGFCCFSMRFFVFIDLVGTLILPATVVYLFYLIIVV | 39400
INVTSPPPIDYLSIGDFSFFSFETTDLPFSIDSGVLLPSLSSFEQPIFDFNFI | 143000

Sequence | transcriptional activation domain activity
IPENELLDEDTMNFISSLKNDLSNISNSLPFEYPHEIAEAIRSDFSNEDIYDN | 98200
IPGPILLCSLTALSCLTLFTLLVSIYWSVSSVCHLIFLTILWILRCLVTLLRF | 34600
IPHGKVGDIFLLFEFSYPIISTIIILFYYYYFYYLLSLHILYFFYYSRCWLLV | 42300
IPIKYNTAIKRHQHSTELPSSVKCGFCNDNTTCVCKELETDHRKSDDGVATEQ | 39200
IPIQLGCMHLHSPWMTYALLYQLIYPMMMIYNLVNCIYFGTGTQMLWWMVSIV | 73000
IPLKKLCHAAIADLFRFLVLSKKDSKDIVARQRLQVAAWMGLWPPKIQRNKWV | 45600
IPPLVLFFHFHFPSCGGCAFCRCLFLCLLLLALSLPLIPVSLIMCYPCHMYLL | 41100
IPSHQFAFGRFMALSSTLGCKFFFSSFNSFFYIFFITLFFSLLLLPFFKNLFF | 39300
IPSLLSLSFYCLGFLSFAISSFSFPSFPLYHYPLCLGFLYSAGWLVGGYLWLY | 77000
IPSSQSRDIANDYDRGSTDNNLVTTTSTSSIFHDEDLTFFDRIPLNSNNNYYF | 102000
IPTPFASHAFNPFDGFLQSLPYHLYAYFIPMHKYLYLSMFVFVNFWTVMIHDG | 50600
IPTPFASHAFNPVDGFLQSLPYHLYAYFIPMHKYLYLSMFVFVNFWTVMIHDG | 58500
IPYVAQEYGFDYELVTYKWPSWLRAQKEKQRVIWAYKILFLDVLFPLDLKKVI | 62100
IQAAGLWQCRYSSYGIECVRYVFFFTMFLFLLRSGWYLSSAFFLGLLWHQLSF | 39600
IQAEGLYDCRYSSYGIELLRYAFYFGMFLFLLRSGWYITSSVFLGTLWHQLSF | 21100
IQAEGLYQCRYRSYGIECIRYIFFFAMFGFLLKSEWYLSSAFFLGCLWHQLAF | 25300
IQAYLVNFLSSACLMNFWVTLTFLLGGEPYHYSTYVLLVGWMFIYLILLFGLI | 37700
IQDLVFSIIGWFCFGGYTGYNIIQYVNMFGFAEWRRTLPVLYQLMYFNVWMSL | 62900
IQEDNEEGERRRRRRKGKAGEETEGEKKEKKRKKNGATKSGKRGKMERNGKLK | 28400
IQEEVKAKKKRKSRKGAKEEGEASPAESSESDGEQEKPKKKASRKKKRPKVEG | 27600
IQFSLIPLSILSFCINHFGLGCDVWTVSFAHITDVLHITYWVEILYTLCLYFV | 40700
IQNEDKFAESKNLSLDEFLKIFNGIYYERLRYDFNVVVIILLLTLFNHCKDFY | 52700
IQSGDEGKDRKGREKVEDRSKRSRRRSRSRSKDRSRGKRRRDDHEGTKGGGQA | 41100
IQTYEIVGLTSCSLNVVLLPFAFYLVTLCFKTSERSPLLSMLCRLFFLPLTCG | 45100
